Source: patent US20230048960A1 (University of Washington, published 2023)
Square brackets hold non-standard residues; d marks the D form. dNle = CCCC[C@@H](N)C(=O)O

target: Aβ42 (UniProt P05067 672-713); assay: cell-based or functional assay
Sequence (P05067 672-713 limits assumed): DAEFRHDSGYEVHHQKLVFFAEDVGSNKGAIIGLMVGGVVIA

% inhibition of fibril formation (ThT), AP:Aβ42 1:1	% inhibition of fibril formation (ThT), AP:Aβ42 1:10	% inhibition of fibril formation (ThT), AP:Aβ42 1:100	Binder
100%	98.2%	53.7%	Ac-RGE[dY]N[dC]F[dW]MNEYYGW[dT]M[dN]M[dR]MGK-NH2 (also: homodimer: D-Cys6 disulfide-bonded to D-Cys6 of other copy) [AP535d]
62.3%	31.3%	0%	Ac-RGE[dY]N[dC]F[dW]MNEYYGW[dT]M[dN]M[dR]MGK-NH2 (SMILES CSCC[C@H](NC(=O)[C@@H](CCCNC(=N)N)NC(=O)[C@H](CCSC)NC(=O)[C@@H](CC(N)=O)NC(=O)[C@H](CCSC)NC(=O)[C@H](NC(=O)[C@H](Cc1c[nH]c2ccccc12)NC(=O)CNC(=O)[C@H](Cc1ccc(O)cc1)NC(=O)[C@H](Cc1ccc(O)cc1)NC(=O)[C@H](CCC(=O)O)NC(=O)[C@H](CC(N)=O)NC(=O)[C@H](CCSC)NC(=O)[C@@H](Cc1c[nH]c2ccccc12)NC(=O)[C@H](Cc1ccccc1)NC(=O)[C@@H](CS)NC(=O)[C@H](CC(N)=O)NC(=O)[C@@H](Cc1ccc(O)cc1)NC(=O)[C@H](CCC(=O)O)NC(=O)CNC(=O)[C@H](CCCNC(=N)N)NC(C)=O)[C@H](C)O)C(=O)NCC(=O)N[C@@H](CCCCN)C(N)=O) [AP535m]
90.2%	82.3%	72%	Ac-RGE[dL]N[dY]F[dW]MNECYGW[dT]M[dN]M[dR]MGK-NH2 (also: homodimer: Cys12 disulfide-bonded to Cys12 of other copy) [AP537d]
54.2%	0%	0%	Ac-RGE[dL]N[dY]F[dW]MNECYGW[dT]M[dN]M[dR]MGK-NH2 (SMILES CSCC[C@H](NC(=O)[C@@H](CCCNC(=N)N)NC(=O)[C@H](CCSC)NC(=O)[C@@H](CC(N)=O)NC(=O)[C@H](CCSC)NC(=O)[C@H](NC(=O)[C@H](Cc1c[nH]c2ccccc12)NC(=O)CNC(=O)[C@H](Cc1ccc(O)cc1)NC(=O)[C@H](CS)NC(=O)[C@H](CCC(=O)O)NC(=O)[C@H](CC(N)=O)NC(=O)[C@H](CCSC)NC(=O)[C@@H](Cc1c[nH]c2ccccc12)NC(=O)[C@H](Cc1ccccc1)NC(=O)[C@@H](Cc1ccc(O)cc1)NC(=O)[C@H](CC(N)=O)NC(=O)[C@@H](CC(C)C)NC(=O)[C@H](CCC(=O)O)NC(=O)CNC(=O)[C@H](CCCNC(=N)N)NC(C)=O)[C@H](C)O)C(=O)NCC(=O)N[C@@H](CCCCN)C(N)=O) [AP537m]
100%	85.2%	43.1%	Ac-RGE[dL]N[dY]F[dW]MNEYYGW[dT]C[dN]M[dR]MGK-NH2 (also: homodimer: Cys17 disulfide-bonded to Cys17 of other copy) [AP536d]
74.1%	21.4%	0%	Ac-RGE[dL]N[dY]F[dW]MNEYYGW[dT]C[dN]M[dR]MGK-NH2 (SMILES CSCC[C@H](NC(=O)[C@@H](CCCNC(=N)N)NC(=O)[C@H](CCSC)NC(=O)[C@@H](CC(N)=O)NC(=O)[C@H](CS)NC(=O)[C@H](NC(=O)[C@H](Cc1c[nH]c2ccccc12)NC(=O)CNC(=O)[C@H](Cc1ccc(O)cc1)NC(=O)[C@H](Cc1ccc(O)cc1)NC(=O)[C@H](CCC(=O)O)NC(=O)[C@H](CC(N)=O)NC(=O)[C@H](CCSC)NC(=O)[C@@H](Cc1c[nH]c2ccccc12)NC(=O)[C@H](Cc1ccccc1)NC(=O)[C@@H](Cc1ccc(O)cc1)NC(=O)[C@H](CC(N)=O)NC(=O)[C@@H](CC(C)C)NC(=O)[C@H](CCC(=O)O)NC(=O)CNC(=O)[C@H](CCCNC(=N)N)NC(C)=O)[C@H](C)O)C(=O)NCC(=O)N[C@@H](CCCCN)C(N)=O) [AP536m]

More lines, now with the values behind:

Binder	% inhibition of fibril formation (ThT), AP:Aβ42 1:1	% inhibition of fibril formation (ThT), AP:Aβ42 1:10	% inhibition of fibril formation (ThT), AP:Aβ42 1:100
Ac-RGN[dW]N[dE]S[dK]MNEYYGW[dM]L[dM]T[dC]MGR-NH2 (SMILES CSCC[C@H](NC(=O)[C@@H](CCCCN)NC(=O)[C@H](CO)NC(=O)[C@@H](CCC(=O)O)NC(=O)[C@H](CC(N)=O)NC(=O)[C@@H](Cc1c[nH]c2ccccc12)NC(=O)[C@H](CC(N)=O)NC(=O)CNC(=O)[C@H](CCCNC(=N)N)NC(C)=O)C(=O)N[C@@H](CC(N)=O)C(=O)N[C@@H](CCC(=O)O)C(=O)N[C@@H](Cc1ccc(O)cc1)C(=O)N[C@@H](Cc1ccc(O)cc1)C(=O)NCC(=O)N[C@@H](Cc1c[nH]c2ccccc12)C(=O)N[C@H](CCSC)C(=O)N[C@@H](CC(C)C)C(=O)N[C@H](CCSC)C(=O)N[C@H](C(=O)N[C@H](CS)C(=O)N[C@@H](CCSC)C(=O)NCC(=O)N[C@@H](CCCNC(=N)N)C(N)=O)[C@@H](C)O) [AP503m]	61.8%	16.2%	0%
Ac-RGE[dNle]N[dY]F[dW]MNEYYGW[dT]M[dN]M[dC]RGK-NH2 (SMILES CCCC[C@@H](NC(=O)[C@H](CCC(=O)O)NC(=O)CNC(=O)[C@H](CCCNC(=N)N)NC(C)=O)C(=O)N[C@@H](CC(N)=O)C(=O)N[C@H](Cc1ccc(O)cc1)C(=O)N[C@@H](Cc1ccccc1)C(=O)N[C@H](Cc1c[nH]c2ccccc12)C(=O)N[C@@H](CCSC)C(=O)N[C@@H](CC(N)=O)C(=O)N[C@@H](CCC(=O)O)C(=O)N[C@@H](Cc1ccc(O)cc1)C(=O)N[C@@H](Cc1ccc(O)cc1)C(=O)NCC(=O)N[C@@H](Cc1c[nH]c2ccccc12)C(=O)N[C@@H](C(=O)N[C@@H](CCSC)C(=O)N[C@H](CC(N)=O)C(=O)N[C@@H](CCSC)C(=O)N[C@H](CS)C(=O)N[C@@H](CCCNC(=N)N)C(=O)NCC(=O)N[C@@H](CCCCN)C(N)=O)[C@H](C)O) [AP534m]	40.2%	11.2%	0%
Ac-RGN[dW]N[dE]S[dK]M[dN][dE][dY][dY]GW[dM]L[dM]C[dT]MGR-NH2 (also: disulfide-linked homodimer via Cys19) [AP502d]	100%	88.4%	47.1%
Ac-RGN[dW]N[dE]S[dK]MNEYYGW[dM]L[dM]T[dC]MGR-NH2 (also: disulfide-linked homodimer (Cys20 to Cys20 of other copy), disulfide at 20, other end not in the chain) [AP503d]	100%	100%	70.1%
Ac-RGN[dC]N[dE]S[dK]MNEYYGW[dM]L[dM]L[dT]MGR-NH2 (SMILES CSCC[C@H](NC(=O)[C@@H](CCCCN)NC(=O)[C@H](CO)NC(=O)[C@@H](CCC(=O)O)NC(=O)[C@H](CC(N)=O)NC(=O)[C@@H](CS)NC(=O)[C@H](CC(N)=O)NC(=O)CNC(=O)[C@H](CCCNC(=N)N)NC(C)=O)C(=O)N[C@@H](CC(N)=O)C(=O)N[C@@H](CCC(=O)O)C(=O)N[C@@H](Cc1ccc(O)cc1)C(=O)N[C@@H](Cc1ccc(O)cc1)C(=O)NCC(=O)N[C@@H](Cc1c[nH]c2ccccc12)C(=O)N[C@H](CCSC)C(=O)N[C@@H](CC(C)C)C(=O)N[C@H](CCSC)C(=O)N[C@@H](CC(C)C)C(=O)N[C@@H](C(=O)N[C@@H](CCSC)C(=O)NCC(=O)N[C@@H](CCCNC(=N)N)C(N)=O)[C@H](C)O) [AP504m]	30%	19.2%	0%
Ac-RGE[dNle]N[dY]F[dW]MNEYYGW[dT]M[dN]M[dC]RGK-NH2 (also: disulfide-linked homodimer via Cys20) [AP534d]	100%	92.2%	51.3%
Ac-RGN[dC]N[dE]S[dK]MNEYYGW[dM]L[dM]L[dT]MGR-NH2 (also: disulfide-linked homodimer (Cys4 to Cys4 of other copy), disulfide at 4, other end not in the chain) [AP504d]	100%	100%	64.3%
Ac-RGN[dW]N[dE]S[dK]MNEYYGW[dM]L[dM]C[dT]MGR-NH2 (also: disulfide-linked homodimer via Cys19) [AP501d]	90%	81.4%	48.2%
Ac-RGN[dW]N[dE]S[dK]M[dN][dE][dY][dY]GW[dM]L[dM]C[dT]MGR-NH2 (SMILES CSCC[C@H](NC(=O)[C@@H](CCCCN)NC(=O)[C@H](CO)NC(=O)[C@@H](CCC(=O)O)NC(=O)[C@H](CC(N)=O)NC(=O)[C@@H](Cc1c[nH]c2ccccc12)NC(=O)[C@H](CC(N)=O)NC(=O)CNC(=O)[C@H](CCCNC(=N)N)NC(C)=O)C(=O)N[C@H](CC(N)=O)C(=O)N[C@H](CCC(=O)O)C(=O)N[C@H](Cc1ccc(O)cc1)C(=O)N[C@H](Cc1ccc(O)cc1)C(=O)NCC(=O)N[C@@H](Cc1c[nH]c2ccccc12)C(=O)N[C@H](CCSC)C(=O)N[C@@H](CC(C)C)C(=O)N[C@H](CCSC)C(=O)N[C@@H](CS)C(=O)N[C@@H](C(=O)N[C@@H](CCSC)C(=O)NCC(=O)N[C@@H](CCCNC(=N)N)C(N)=O)[C@H](C)O) [AP502m]	23.8%	0%	0%
